From patent publication US7285654 (SIGNAL PHARMACEUTICALS, dated 2007) come the findings set out here.

Square brackets hold non-standard residues; d marks the D form. Ends that are not written are not given here. pS = N[C@@H](COP(=O)(O)O)C(=O)O

The target in this assay is IKK signalsome (stimulus-inducible IκB kinase complex) immunopurified from TNFα-stimulated HeLa cells (human). As to the kind of experiment: product inhibition of immunopurified IKK signalsome; 32P incorporation into GST-IκBα (1-54), TCA precipitation, Dixon analysis.
Sequence of IKK signalsome (stimulus-inducible IκB kinase complex) immunopurified from TNFα-stimulated HeLa cells (human) (chain, as listed by the source, chain 1 of 3): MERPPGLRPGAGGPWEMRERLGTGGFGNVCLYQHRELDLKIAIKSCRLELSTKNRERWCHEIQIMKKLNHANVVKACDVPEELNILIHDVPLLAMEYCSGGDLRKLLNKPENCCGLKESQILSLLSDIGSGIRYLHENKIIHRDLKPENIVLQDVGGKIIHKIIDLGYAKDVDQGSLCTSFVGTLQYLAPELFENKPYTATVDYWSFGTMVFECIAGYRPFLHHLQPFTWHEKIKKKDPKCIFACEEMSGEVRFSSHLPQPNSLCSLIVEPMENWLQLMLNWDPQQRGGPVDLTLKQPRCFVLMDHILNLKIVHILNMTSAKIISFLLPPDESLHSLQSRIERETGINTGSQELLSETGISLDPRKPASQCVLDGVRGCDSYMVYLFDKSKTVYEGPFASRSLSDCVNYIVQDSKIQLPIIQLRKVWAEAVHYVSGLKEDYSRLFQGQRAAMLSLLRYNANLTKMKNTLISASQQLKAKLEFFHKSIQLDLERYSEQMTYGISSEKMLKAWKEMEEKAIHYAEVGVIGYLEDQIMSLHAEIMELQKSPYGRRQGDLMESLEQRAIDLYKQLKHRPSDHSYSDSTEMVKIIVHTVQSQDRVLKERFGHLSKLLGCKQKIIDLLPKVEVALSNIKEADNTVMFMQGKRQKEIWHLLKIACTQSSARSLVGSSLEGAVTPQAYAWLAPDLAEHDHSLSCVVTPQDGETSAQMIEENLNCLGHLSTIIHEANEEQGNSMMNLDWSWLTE
Sequence of IKK signalsome (stimulus-inducible IκB kinase complex) immunopurified from TNFα-stimulated HeLa cells (human) (chain, as listed by the source, chain 2 of 3): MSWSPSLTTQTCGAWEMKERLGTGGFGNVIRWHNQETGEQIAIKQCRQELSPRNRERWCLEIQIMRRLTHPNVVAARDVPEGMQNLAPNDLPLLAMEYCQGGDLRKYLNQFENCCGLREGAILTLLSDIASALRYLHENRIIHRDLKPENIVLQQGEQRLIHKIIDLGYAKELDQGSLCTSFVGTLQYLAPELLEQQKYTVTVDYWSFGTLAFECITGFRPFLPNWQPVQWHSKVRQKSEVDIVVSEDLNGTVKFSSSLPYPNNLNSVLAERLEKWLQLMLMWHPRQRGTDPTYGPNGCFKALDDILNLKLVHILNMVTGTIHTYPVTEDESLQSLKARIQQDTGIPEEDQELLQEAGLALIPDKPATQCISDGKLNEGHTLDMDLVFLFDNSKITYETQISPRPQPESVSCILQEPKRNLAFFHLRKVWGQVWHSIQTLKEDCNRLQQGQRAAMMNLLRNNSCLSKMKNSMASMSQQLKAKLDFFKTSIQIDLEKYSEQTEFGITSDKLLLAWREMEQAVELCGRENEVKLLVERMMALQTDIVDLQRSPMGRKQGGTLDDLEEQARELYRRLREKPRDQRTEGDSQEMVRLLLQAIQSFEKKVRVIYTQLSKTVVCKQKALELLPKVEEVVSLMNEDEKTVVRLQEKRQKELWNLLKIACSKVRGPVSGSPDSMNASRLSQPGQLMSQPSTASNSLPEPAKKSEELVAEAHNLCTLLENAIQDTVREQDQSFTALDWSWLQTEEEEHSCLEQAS
Sequence of IKK signalsome (stimulus-inducible IκB kinase complex) immunopurified from TNFα-stimulated HeLa cells (human) (chain, as listed by the source, chain 3 of 3): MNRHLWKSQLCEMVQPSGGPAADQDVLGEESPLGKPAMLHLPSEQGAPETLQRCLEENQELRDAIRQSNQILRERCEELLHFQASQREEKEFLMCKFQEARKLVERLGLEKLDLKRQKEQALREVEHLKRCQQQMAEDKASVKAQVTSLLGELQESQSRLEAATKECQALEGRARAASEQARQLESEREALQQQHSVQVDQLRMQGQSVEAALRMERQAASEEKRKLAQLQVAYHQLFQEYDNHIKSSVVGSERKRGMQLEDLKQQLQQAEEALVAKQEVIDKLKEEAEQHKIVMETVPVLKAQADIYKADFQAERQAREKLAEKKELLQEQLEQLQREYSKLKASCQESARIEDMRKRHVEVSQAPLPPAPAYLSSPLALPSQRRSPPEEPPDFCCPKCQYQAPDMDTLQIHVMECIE

B1: IκBα (21-41) peptide P32,36 (doubly phosphorylated IκBα peptide bearing phosphoserines at both positions 32 and 36) (peptide)
peptide: CKKERLLDDRHD[pS]GLD[pS]MKDEE
notes: The phosphorylated forms are described as the same peptide chemically phosphorylated; also called P32, 36 peptide
As to B1, the Ki (usually the equilibrium dissociation constant of an inhibitor or competing ligand from its target) is 14 µM.
